Source: PMC5548745, “Agonist-induced dimer dissociation as a macromolecular step in G protein-coupled receptor signaling” (Nature Communications, 2017)

Tests used:
[1] = circular dichroism of synthetic TM peptides; assay type: physicochemical; conditions: DDM detergent solution; lipophilic environment
Experimental: CD spectra were recorded using a J-810 spectropolarimeter (Jasco, Easton, MD, USA) in a 0.1 cm quartz cuvette. Far-UV CD spectra were collected over 190–260 nm. ITC measurements were carried out at 20 °C on an ITC (VP–ITC 200, MicroCal). 820 µM FZD6 TM5 and 165 µM FZD6 TM4 were dissolved in 0.5% DDM in water. 2 µl of TM5 peptide were injected into 260 µl TM4 during each titration. The ITC data were analyzed with the Origin 7.0 software.
Supplementary Figure 5: Circular dichroism (CD) and isothermal titration calorimetry (ITC) experiments for structural analysis of synthetic peptides resembling TM1, 4, 5 and mutant TM5 and of peptide-peptide interactions, related to Figure 3. Synthetic peptides (for sequence see Supplementary Fig. 9) resembling TM1 (a), 4 (b), 5 (c) and mutant TM5 (d) were used for CD experiments in triple distilled water with increasing DDM concentrations (0% DDM – black, 0.01% DDM – blue, 0.1% DDM – green and 0.5% DDM – red). (c)TM5 is unstructured in TDW and begins to gain structure at 0.1% DDM. It forms a clear α-helical structure in 0.5% DDM. The triple mutated TM5 (d) forms an α-helix in a much lower DDM concentration (0.01% DDM). […]

FZD6–FZD6 dimer = experiment: dcFRAP of V5-FZD6-mCherry/FZD6-GFP (FZD6 dimerization); assay type: cell-based, human; conditions: HEK293; for dimerization by CL-induced decrease of mobile fraction: GFP-tagged mutant with wt V5-FZD6-mCherry, anti-V5/avidin crosslinking
Experimental: For dual color FRAP experiments, cells grown in four compartment 35 mm glass bottom dishes were washed three times with BE buffer[19] (150 mM NaCl, 2.5 mM KCl, 10 mM HEPES, 12 mM glucose, 0.5 mM CaCl2, and 0.5 mM MgCl2). Then, the cells were incubated at RT for 30 min with biotin-conjugated goat polyclonal anti-V5 antibody (Bethyl) diluted 1:100 in BE buffer supplemented with 2.5% bovine serum albumin. For antibody-mediated cross-linking, avidin was added and incubated for 15 min and washed two times with BE buffer before the experiments were performed. In Fig. 4, dcFRAP experiments are presented that employ chemical surface crosslinking to visualize assembly of FZD6 with DVL or heterotrimeric G proteins according to previously published protocols. Live cell imaging experiments were carried out using a Zeiss 710 laser scanning microscope. Images were acquired using a 40×, 1.2 NA C-Apochromat objective and the 488 nm and the 561 nm laser lines were used to excite GFP and mCherry fluorophores, respectively. Photobleaching was performed by 100% laser illumination of a 1.80 × 1.80 µm area placed over the cell plasma membrane. Fluorescence was measured pre- and post-bleach using low-intensity illumination for a total time period of 100 s. Average pixel intensity was measured using the ZEN2013 software, corrected for background fluctuations and bleaching artifacts and normalized to pre-bleached intensity. The recovered mobile fraction (F m) was calculated as follows: F m = (I P–I 0)/(I I–I 0), where I I is the initial intensity measured prior to bleaching, I 0 is the immediate fluorescence intensity post-bleaching and I P is intensity value post-bleaching. The mobile fraction was defined by the average of the fluorescence recovery assessed between time 85–101 s (including pre-bleach measurements). We excluded experiments in which the extracellularly tagged receptors were not sufficiently immobilized after the crosslinking procedure (cutoff at 40% crosslinking-induced reduction in mobile fraction). Kinetic determination of mobile fractions of crosslinked V5-FZD6-mCherry and FZD6-GFP with WNT stimulation over time were performed in one cell culture well. Measurements for each time point were performed on separate cells.
Statistical and graphical analysis was performed using Graph Pad Prism 5 software. Data were analyzed by two-tailed t-test or one-way ANOVA with Fisher’s least significant difference post hoc analysis. Curve fitting of FRAP data was done with a two-phase association nonlinear function using the least square fit. Data for receptor titration in the presence of C59 and output to P-ERK1/2 in Fig. 6h was fit to a linear regression model. All experiments were repeated at least three times in independent experiments (not representing technical replicates). For single cell analysis (dcFRAP), the number of the individual ROIs obtained from several cells in at least three independent experiments is provided in the figure legends. Data from individual ROIs are summarized for data presentation providing the sum of independent observations. Significance levels are given as: *P < 0.05; **P < 0.01; ***P < 0.001. Data in FRAP curves and bar graphs (FRAP) are presented as mean ± s.e.m.

Row | Molecule | dimerization by CL-induced decrease of mobile fraction (FZD6–FZD6 dimer) | also measured
1 | KKKVWFHAVAWGTPGFLTVMLLAMNKKK [TM4, synthetic peptide of FZD6 transmembrane helix 4] |  | secondary structure in detergent (CD) [1]: structured and α-helical
2 | DVL2-MYC: overexpressed MYC-tagged DVL2 (protein, UniProt O14641 1-736, looked up, MYC tag) Segment polarity protein …: MAGSSTGGGGVGETKVIYHLDEEETPYLVKIPVPAERITLGDFKSVLQRPAGAKYFFKSMDQDFGVVKEEISDDNARLPCFNGRVVSWLVSSDNPQPEMAPPVHEPRAELAPPAPPLPPLPPERTSGIGDSRPPSFHPNVSSSHENLEPETETESVVSLRRERPRRRDSSEHGAGGHRTGGPSRLERHLAGYESSSTLMTSELESTSLGDSDEEDTMSRFSSSTEQSSASRLLKRHRRRRKQRPPRLERTSSFSSVTDSTMSLNIITVTLNMEKYNFLGISIVGQSNERGDGGIYIGSIMKGGAVAADGRIEPGDMLLQVNDMNFENMSNDDAVRVLRDIVHKPGPIVLTVAKCWDPSPQAYFTLPRNEPIQPIDPAAWVSHSAALTGTFPAYPGSSSMSTITSGSSLPDGCEGRGLSVHTDMASVTKAMAAPESGLEVRDRMWLKITIPNAFLGSDVVDWLYHHVEGFPERREARKYASGLLKAGLIRHTVNKITFSEQCYYVFGDLSGGCESYLVNLSLNDNDGSSGASDQDTLAPLPGATPWPLLPTFSYQYPAPHPYSPQPPPYHELSSYTYGGGSASSQHSEGSRSSGSTRSDGGAGRTGRPEERAPESKSGSGSESEPSSRGGSLRRGGEASGTSDGGPPPSRGSTGGAPNLRAHPGLHPYGPPPGMALPYNPMMVVMMPPPPPPVPPAVQPPGAPPVRDLGSVPPELTASRQSFHMAMGNPSEFFVDVM |  | effect of altered DVL level on FZD6 dimer formation (FZD6–FZD6 dimer; V5-FZD6-mCherry/FZD6-GFP, pan-DVL siRNA or overexpressed DVL2-MYC): Absence of a role for DVL and G proteins in FZD6 dimer formation
3 | FZD6 dimer control mutant: FZD6 with D365E, R368K, Y369F (protein, left off: GFP, C-terminal, kept, FZD6 with D365E, R368K, Y369F) HSLFTCEPITVPRCMKMAYNMTFFPNLMGHYDQSIAAVEMEHFLPLANLECSPNIETFLCKAFVPTCIEQIHVVPPCRKLCEKVYSDCKKLIDTFGIRWPEELECDRLQYCDETVPVTFDPHTEFLGPQKKTEQVQRDIGFWCPRHLKTSGGQGYKFLGIDQCAPPCPNMYFKSDELEFAKSFIGTVSIFCLCATLFTFLTFLIDVRRFRYPERPIIYYSVCYSIVSLMYFIGFLLGDSTACNKADEKLELGDTVVLGSQNKACTVLFMLLYFFTMAGTVWWVILTITWFLAAGRKWSCEAIEQKAVWFHAVAWGTPGFLTVMLLAMNKVEGDNISGVCFVGLYDLEASKFFVLLPLCLCVFVGLSLLLAGIISLNHVRQVIQHDGRNQEKLKKFMIRIGVFSGLYLVPLVTLLGCYVYEQVNRITWEITWVSDHCRQYHIPCPYQAKAKARPELALFMIKYLMTLIVGISAVFWVGSKKTCTEWAGFFKRNRKRDPISESRRVLQESCEFFLKHNSKVKHKKKHYKPSSHKLKVISKSMGTSTGATANHGTSAVAITSHDYLGQETLTEIQTSPETSMREVKADGASTPRLREQDCGEPASPAASISRLSGEQVDGKGQAGSVSESARSEGRISPKSDITDTGLAQSNNLQVPSSSEPSSLKGSTSLLVHPVSGVRKEQGGGCHSDT | maintained the intrinsic ability of FZD6 to form dimers | 
4 | FZD6 F337A mutant: FZD6 with F337A mutation on TM4 (protein) HSLFTCEPITVPRCMKMAYNMTFFPNLMGHYDQSIAAVEMEHFLPLANLECSPNIETFLCKAFVPTCIEQIHVVPPCRKLCEKVYSDCKKLIDTFGIRWPEELECDRLQYCDETVPVTFDPHTEFLGPQKKTEQVQRDIGFWCPRHLKTSGGQGYKFLGIDQCAPPCPNMYFKSDELEFAKSFIGTVSIFCLCATLFTFLTFLIDVRRFRYPERPIIYYSVCYSIVSLMYFIGFLLGDSTACNKADEKLELGDTVVLGSQNKACTVLFMLLYFFTMAGTVWWVILTITWFLAAGRKWSCEAIEQKAVWFHAVAWGTPGALTVMLLAMNKVEGDNISGVCFVGLYDLDASRYFVLLPLCLCVFVGLSLLLAGIISLNHVRQVIQHDGRNQEKLKKFMIRIGVFSGLYLVPLVTLLGCYVYEQVNRITWEITWVSDHCRQYHIPCPYQAKAKARPELALFMIKYLMTLIVGISAVFWVGSKKTCTEWAGFFKRNRKRDPISESRRVLQESCEFFLKHNSKVKHKKKHYKPSSHKLKVISKSMGTSTGATANHGTSAVAITSHDYLGQETLTEIQTSPETSMREVKADGASTPRLREQDCGEPASPAASISRLSGEQVDGKGQAGSVSESARSEGRISPKSDITDTGLAQSNNLQVPSSSEPSSLKGSTSLLVHPVSGVRKEQGGGCHSDT | exhibited a reduced ability to dimerize | 
